For assay [1], the target named is T1, recombinant human IL-8, (ser-IL-8)72 (human, UniProt P10145 28-99, In some assays the protein was iodinated (125I on tyrosine) or coated on a plate. The letters are unchanged.).
T1 construct: also called wild type human IL-8; wt IL-8
T1 sequence: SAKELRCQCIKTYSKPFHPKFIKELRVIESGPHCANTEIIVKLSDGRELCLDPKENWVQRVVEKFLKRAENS
Kind of assay: 125I-IL-8 neutrophil competition; reference not named in the sentence (chimeric F(ab) by Table 4).

Assay [2] addresses T1, recombinant human IL-8, (ser-IL-8)72. Kind of assay: inhibition of 125I-IL-8 binding to the IL-8 receptors on human neutrophils (Bound/Total against cold ligand in nM).
Assay [3] shares this target. Kind of assay: cell-based or functional assay.
The target of assay [4] is human monomeric IL-8 (human). Nature of the assay: cell-based or functional assay.
The target of assay [5] is T2, rabbit IL-8 (rabbit, UniProt P19874 23-101, limits assumed).
T2 sequence (looked up): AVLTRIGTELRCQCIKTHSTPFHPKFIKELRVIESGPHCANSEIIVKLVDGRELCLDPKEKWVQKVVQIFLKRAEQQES
Nature of the assay: cell-based or functional assay.

Assay [6] deals with T1, recombinant human IL-8, (ser-IL-8)72. Nature of the assay: inhibition of 125I-IL-8 binding to the IL-8 receptors on human neutrophils (Bound/Total against cold ligand in nM). This is another data set of the same source.
The target of assay [7] is T3, rhesus IL-8 (rhesus, UniProt P67813 23-101, limits assumed).
T3 sequence (looked up): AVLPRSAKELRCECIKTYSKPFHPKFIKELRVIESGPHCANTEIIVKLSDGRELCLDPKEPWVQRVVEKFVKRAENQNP
Kind of assay: cell-based or functional assay.

Assay [8] deals with T1, recombinant human IL-8, (ser-IL-8)72. Kind of assay: 125I-IL-8 neutrophil competition, against F(ab)-1.
The target is the same in assay [9]. Kind of assay: inhibition of 125I-IL-8 binding to IL-8 receptors on human neutrophils; the legend column has no head, the text calls the values of this figure IC50's.
For assay [10] the target is unchanged. Nature of the assay: cell-based or functional assay. This is another data set of the same source.
For assay [11], the target named is T2, rabbit IL-8. Nature of the assay: cell-based or functional assay. This is another data set of the same source.

Where a chain is given by its changes, count along the chain named. Read-outs that look alike come from different tables or passages of the source. A value given as a limit tells only on which side of the number the result lay.

A word on the IC50: it is the concentration needed to halve the response being measured.

B1: humanized 6G425 F(ab)-1 (Fab, V domains shown)
VH: EVQLVESGGGLVQPGGSLRLSCAASGYSFSSHYMHWVRQAPGKGLEWVGYIDPSNGETTYNQKFKGRFTISRDNSKNTLYLQMNSLRAEDTAVYYCARGDYRYNGDWFFDVWGQGTLVTVSS
VL: DIQMTQSPSSLSASVGDRVTITCRSSQSLVHGIGNTYLHWYQQKPGKAPKLLIYKVSNRFSGVPSRFSGSGSGTDFTLTISSLQPEDFATYYCSQSTHVPLTFGQGTKVEIKR
notes: Fab with human kappa subgroup I light chain and human IgG1 subgroup III heavy chain of phagemid pEMX1; unaltered CDR swap; also called version 1; V1
In the case of B1, the “fold reduction in binding affinity” value in assay [1] turned out to be 5.5 fold. Moreover, the “IC50 (read off the curve)” value in assay [2] is ~20 nM.

B2: 6G4V11N35A Fab' modified with 40 kD linear PEG-maleimide (Fab, V domains shown)
VH: B1 VH with E6Q, I70L, L79A
VL: B1 VL with N35A
modifications: 40 kD linear methoxy-PEG-maleimide on the free cysteine in the hinge region
Consider B2, for which the “IC50, PMN chemotaxis” value in [3] came to 3.7 nM.

B3: 6G4V11N35A Fab (Fab, V domains shown)
VH: B1 VH with E6Q, I70L, L79A
VL: B1 VL with N35A
notes: also called 6G4.2.5V11N35A Fab; Fab control
Take B3: the “IC50, PMN chemotaxis” value in assay [3] is 0.8 nM. Further, the “average IC50, neutrophil chemotaxis” value in assay [3] was 2.7 nM; in assay [4], 1 nM; in [5], 5 nM. Besides, the “IC50 (read off the curve)” value in assay [6] was ~1 nM.

B4: humanized 6G425 F(ab)-9 (humanized 6G4V11 Fab) (Fab, V domains shown)
VH: B1 VH with E6Q, I70L, L79A
VL: B1 VL
Turning to B4, the figures for the “IC50, neutrophil chemotaxis” value in [4] and in assay [7] were ~15 nM and ~22 nM, respectively.

B5: humanized 6G425 F(ab)-2 (Fab, V domains shown)
VH: B1 VH with F68A
VL: B1 VL
notes: template F(ab)-1; also called version 2
B5: in [8], the “fold decrease in IL-8 binding” value was < 2 fold.

B6: full length 6G4V11N35E IgG1 (antibody, V domains shown, not shown: a dimerising Fc or GST)
VH: B1 VH with E6Q, I70L, L79A
VL: B1 VL with N35E
On to B6, for which the “IC50, neutrophil chemotaxis” value in assay [3] was 6 nM; in assay [5] it was 2 nM.

B7: humanized 6G425 F(ab)-3 (Fab, V domains shown)
VH: B1 VH with R72V
VL: B1 VL
notes: template F(ab)-1; also called version 3
On to B7, for which the “fold decrease in IL-8 binding” value in assay [8] is < 2 fold.

B8: full length 6G4V11N35A IgG1 (antibody, V domains shown, not shown: a dimerising Fc or GST)
VH: B1 VH with E6Q, I70L, L79A
VL: B1 VL with N35A
In the case of B8, the “IC50, neutrophil chemotaxis” value in [3] and in [5] was 4 nM throughout.

B9: humanized 6G425 F(ab)-8 (Fab, V domains shown)
VH: B1 VH with R38K, I70L, L79A
VL: B1 VL
Regarding B9, the “IC50, neutrophil chemotaxis” value in assay [3] stood at 12 nM.

B10: 6G4V11N35E Fab (Fab, V domains shown)
VH: B1 VH with E6Q, I70L, L79A
VL: B1 VL with N35E
As to B10, the “IC50, neutrophil chemotaxis” value in assay [3] is ~1.2 nM.

B11: 6G4V11N35A F(ab')2 leucine zipper (other)
light: DIQMTQSPSSLSASVGDRVTITCRSSQSLVHGIGATYLHWYQQKPGKAPKLLIYKVSNRFSGVPSRFSGSGSGTDFTLTISSLQPEDFATYYCSQSTHVPLTFGQGTKVEIKRTVAAPSVFIFPPSDEQLKSGTASVVCLLNNFYPREAKVQWKVDNALQSGNSQESVTEQDSKDSTYSLSSTLTLSKADYEKHKVYACEVTHQGLSSPVTKSFNRGEC
heavy: not shown
On to B11, for which the “average IC50, neutrophil chemotaxis” value in [3] was determined as 1.5 nM; in assay [4] it was 1 nM; in [5], 4 nM.

B12: 6G4V11N35A F(ab')2 modified with a single 20 kD linear PEG molecule (other)
light: B11 light
heavy: not shown
modifications: may carry PEG on a lysine or the N-terminus; site not defined
notes: one 20 kD linear PEG-succinimide (M-SPA-20000) per F(ab')2, on a primary amine; also called single 20 kD linear PEG-modified F(ab')2; linear(1)20 KDa-(N)-(Fab')2
In the case of B12, the IC50 in assay [9] amounted to 0.296 nM.

B13: 6G4V11N35A F(ab')2 modified with a single 40 kD branched PEG molecule (other)
light: B11 light
heavy: not shown
modifications: may carry PEG on a lysine or the N-terminus; site not defined
notes: one 40 kD branched PEG-succinimide (PEG2-NHS-40 KDa) per F(ab')2, on a primary amine; also called single 40 kD branched PEG-modified F(ab')2; branched(1)40 KDa-(N)-(Fab')2
For the molecule B13, in assay [9], the half-maximal inhibitory concentration (IC50) was determined as 0.38 nM.

B14: chimeric 5.12.14 Fab (Fab, V domains shown)
VH: EVQLVESGGGLVPPGGSLKLSCAASGFIFSSYGMSWVRQTPGKSLELVATINNNGDSTYYPDSVKGRFTISRDNAKNTLYLQMSSLKSEDTAMFYCARALISSATWFGYWGQGTLVTVSA
VL: DIVMTQSQKFMSTSVGDRVSVTCKASQNVGTNVAWYQQKPGQSPKALIYSSSYRYSGVPDRFTGSGSGTDFTLTISHVQSEDLADYFCQQYNIYPLTFGPGTKLELRR
As for B14, in assay [10], the “IC50 (4 parameter fit) of the inhibition of human IL-8 (100 nM) stimulated elastase release from human neutrophils” value was 0.643 molar ratio Fab:IL-8 (x axis; 100 nM IL-8).

B15: chimeric 6G4.2.5 Fab (Fab, V domains shown)
VH: EIQLQQSGPELMKPGASVKISCKASGYSFSSHYMHWVKQSHGKSLEWIGYIDPSNGETTYNQKFKGKATLTVDTSSSTANVHLSSLTSDDSAVYFCARGDYRYNGDWFFDVWGAGTTVTVSS
VL: DIVMTQTPLSLPVSLGDQASISCRSSQSLVHGIGNTYLHWYLQKPGQSPKLLIYKVSNRFSGVPDRFSGSGSGTDFTLRISRVEAEDLGLYFCSQSTHVPLTFGAGTKLELKR
Take B15: in [10], the “IC50 (4 parameter fit) of the inhibition of human IL-8 (100 nM) stimulated elastase release from human neutrophils” value was 0.635 molar ratio Fab:IL-8 (x axis; 100 nM IL-8). The “IC50 (4 parameter fit) of the inhibition of rabbit IL-8 (100 nM) stimulated elastase release from human neutrophils (absorbance 405 nM)” value in assay [11] was 1.04 molar ratio Fab:rIL-8 (x axis; 100 nM rIL-8).

Source of the values: patent publication US7005504 (Genentech, dated 2006).
